# Measurements reported in patent US20260201020A1, “METHODS FOR EXPRESSION OF FUSION-FREE BOVINE ULTRALONG CDR3 SCAFFOLD” (priority 2022, published 2026).
# “And” between values parts separate entries of the source, which are not always exact repeats. Equal entries are not always repeated. Where two headings read alike, the source gives them in different places.
# B1: R2F12-His (peptide)
# chain: GGGGAMGSKTKNACPDDFDYRCSCIGGCGCARKGCVGPLCCRSDLGGYLTDSPAYIYLGGGGSGGGGSHHHHHH
# modifications: not checked
# Experiments:
# [1] = Capillary isoelectric focusing (cIEF), isoelectric point; format: physicochemical; conditions: non-reduced; mature knob expression, 2 L scale
# Method: Capillary isoelectric focusing (cIEF): 2 mg/mL knob protein samples were diluted 2-fold by combining 30 microliter of sample with 30 μL of Milli-Q water. 20 μL of the diluted sample was added to 180 μL of Master Mix comprised of: 35% of 1% Methyl cellulose, 10 mM of 0.5M Arginine, 10 mM of 0.25M Iminodiacetic acid, 4% of pI 3-10 Pharmalyte solution, 1% of pI 4.05 marker, 1% of pI 9.5 marker, 2M of 8M Urea, and Milli-Q water. The total amount of 200 μL was then aliquoted into the sample plate for iCIEF analysis. Separation of the analyte occurs in the Maurice capillary cIEF cartridge (Bio-techne PN: PS-MC02-C) set to 55 seconds of sample load, and 1 min at 1500 V then 15 min at 3000 V. Both absorbance and fluorescence detection settings were enabled. Absorbance exposure time was set to 0.005 seconds, while fluorescence exposure times were set to 3, 5, 10, 20 and 40 seconds. Data processing was performed by Compass for iCE software (Version: 2.1.0, Build ID: 0226) from Bio-techne.
# [2] = target: spike RBD (Severe acute respiratory syndrome coronavirus 2, UniProt P0DTC2)
# [3] = target: SARS-CoV-2-Spike receptor binding domain protein (RBD) (Severe acute respiratory syndrome coronavirus 2, UniProt P0DTC2)
# [4] = target: SARS-CoV-2 Spike RBD (SARS-CoV-2), P0DTC2
# [5] = target: SARS-CoV-2 Spike RBD (SARS-CoV-2), P0DTC2; remark: listed apart in the source
# [6] = target: SARS-CoV-2 Spike RBD (SARS-CoV-2), P0DTC2; remark: listed apart in the source
# [7] = target: SARS-CoV-2 Spike RBD (SARS-CoV-2), P0DTC2; remark: listed apart in the source
# [8] = target: SARS-CoV-2 Spike RBD (SARS-CoV-2), P0DTC2; remark: listed apart in the source
# [9] = target: SARS-CoV-2 Spike RBD (SARS-CoV-2), P0DTC2; remark: listed apart in the source
# [10] = target: SARS-CoV-2 Spike RBD (SARS-CoV-2), P0DTC2; remark: listed apart in the source
# [11] = target: SARS-CoV-2 Spike RBD (SARS-CoV-2), P0DTC2; remark: listed apart in the source
# [12] = target: SARS-CoV-2 Spike RBD (SARS-CoV-2), P0DTC2; remark: listed apart in the source
# [13] = target: SARS-CoV-2 Spike RBD (SARS-CoV-2), P0DTC2; remark: listed apart in the source
# [14] = target: SARS-CoV-2 Spike RBD (SARS-CoV-2), P0DTC2; remark: listed apart in the source
# [15] = target: SARS-CoV-2 Spike RBD (SARS-CoV-2), P0DTC2; remark: listed apart in the source
# [16] = target: SARS-CoV-2 Spike RBD (SARS-CoV-2), P0DTC2; remark: listed apart in the source
# [17] = target: SARS-CoV-2 Spike RBD (SARS-CoV-2), P0DTC2; remark: listed apart in the source
# [18] = target: SARS-CoV-2 Spike RBD (SARS-CoV-2), P0DTC2; remark: listed apart in the source
# [19] = target: SARS-CoV-2 Spike RBD (SARS-CoV-2), P0DTC2; remark: listed apart in the source
# [20] = target: SARS-CoV-2 Spike RBD (SARS-CoV-2), P0DTC2; remark: listed apart in the source
# [21] = target: SARS-CoV-2 Spike RBD (SARS-CoV-2), P0DTC2; remark: listed apart in the source
# [22] = target: SARS-CoV-2 Spike RBD (SARS-CoV-2), P0DTC2; remark: listed apart in the source
# [23] = target: SARS-CoV-2 Spike RBD (SARS-CoV-2), P0DTC2; remark: listed apart in the source
# [24] = target: SARS-CoV-2 Spike RBD (SARS-CoV-2), P0DTC2; remark: listed apart in the source
# [25] = target: SARS-CoV-2 Spike RBD (SARS-CoV-2), P0DTC2; remark: listed apart in the source
# [26] = target: SARS-CoV-2 Spike RBD (SARS-CoV-2), P0DTC2; remark: listed apart in the source
# [27] = target: SARS-CoV-2 Spike RBD (SARS-CoV-2), P0DTC2; remark: listed apart in the source
# [28] = target: SARS-CoV-2 Spike RBD (SARS-CoV-2), P0DTC2; remark: listed apart in the source
# [29] = target: SARS-CoV-2 Spike RBD (SARS-CoV-2), P0DTC2; remark: listed apart in the source
molecule,measurement,setting,value
R2F12-mini (GGSNACPDDFDYRCSCIGGCGCARKGCVGPLCCRSDLGGYLTDSPA),Isoelectric Point (pI) Determination by iCEF,[1],5.15 (non-reduced)
same,binding activity to spike RBD,[2],maintain binding activity
same,Amino Acid Sequence of Binding Epitopes to Spike RBD Protein as determined by HDX Analysis: Major Epitope,[3],154-194 (Major and 154-192 (Major
R2G3-mini (GSTCPDGYEHTCGCIGGCGCKRSACIGALCCQASLGGWLS),Isoelectric Point (pI) Determination by iCEF,[1],7.37 (non-reduced)
same,binding activity to spike RBD,[2],maintain binding activity
same,Amino Acid Sequence of Binding Epitopes to Spike RBD Protein as determined by HDX Analysis: Major Epitope,[3],154-192 (Major and 154-194 (Major
same,RBD amino acid sequence with maximum protection against deuterium uptake,[3],158-184
B1,Adjusted Binding Rate,[4],1.62 nm/s
same,Adjusted Binding Rate,[5],2.46 nm/s
same,Adjusted Binding Rate,[6],1.33 nm/s
same,Adjusted Binding Rate,[7],1.67 nm/s
same,Adjusted Binding Rate,[8],3.6 nm/s
same,Adjusted Binding Rate,[9],9.3 nm/s
same,Adjusted Binding Rate,[10],9.6 nm/s
same,Adjusted Binding Rate,[11],14.9 nm/s
same,Adjusted Binding Rate,[12],1.3 nm/s
same,Adjusted Binding Rate,[13],2.38 nm/s
same,Adjusted Binding Rate,[14],0.62 nm/s
same,Adjusted Binding Rate,[15],2.11 nm/s
same,Adjusted Binding Rate,[16],2.68 nm/s
same,Adjusted Binding Rate,[17],2.69 nm/s
same,Adjusted Binding Rate,[18],3.32 nm/s
same,Adjusted Binding Rate,[19],5.37 nm/s
same,Adjusted Binding Rate,[20],3.86 nm/s
same,Adjusted Binding Rate,[21],4.69 nm/s
same,Adjusted Binding Rate,[22],3.61 nm/s
same,Adjusted Binding Rate,[23],2.76 nm/s
same,Adjusted Binding Rate,[24],4.7 nm/s
same,Adjusted Binding Rate,[25],3.54 nm/s
same,Adjusted Binding Rate,[26],0.4 nm/s
same,Adjusted Binding Rate,[27],0.8 nm/s
same,Adjusted Binding Rate,[28],0.5 nm/s
same,Adjusted Binding Rate,[29],0.8 nm/s
